{"source": "patent US20140112936A1", "key": {"[1]": {"biological_target": "gp41-inter (HIV-1 clade A isolate 92UG037.8)", "assay": "SPR, gp41-inter immobilized on CM5 chip, Fab as analyte, 1:1 Langmuir"}, "[2]": {"biological_target": "GCN4-gp41-inter (HIV-1 clade A isolate 92UG037.8 (gp41 part))", "assay": "SPR, GCN4-gp41-inter immobilized on CM5 chip, Fab as analyte, 1:1 Langmuir"}, "[3]": {"biological_target": "gp41-inter (HIV-1 clade A isolate 92UG037.8)", "assay": "SPR, gp41-inter immobilized on CM5 chip, Fab as analyte, 1:1 Langmuir (single curve)"}, "[4]": {"biological_target": "GCN4-gp41-inter (HIV-1 clade A isolate 92UG037.8 (gp41 part))", "assay": "SPR, GCN4-gp41-inter immobilized on CM5 chip, Fab as analyte, 1:1 Langmuir (single curve)"}}}
{"substance": "2F5 Fab", "values": [{"measurement": "Kd", "setting": "[1]", "result": 0.415, "unit": "nM"}, {"measurement": "koff", "setting": "[1]", "result": 0.00019, "unit": "s⁻¹"}, {"measurement": "kon", "setting": "[1]", "result": 457000, "unit": "M⁻¹ s⁻¹"}, {"measurement": "Kd", "setting": "[2]", "result": 0.317, "unit": "nM"}, {"measurement": "koff", "setting": "[2]", "result": 0.000158, "unit": "s⁻¹"}, {"measurement": "kon", "setting": "[2]", "result": 498000, "unit": "M⁻¹ s⁻¹"}]}
{"substance": "4E10 Fab", "values": [{"measurement": "Kd", "setting": "[3]", "result": 8.85, "unit": "nM"}, {"measurement": "koff", "setting": "[3]", "result": 0.000235, "unit": "s⁻¹"}, {"measurement": "kon", "setting": "[3]", "result": 26600, "unit": "M⁻¹ s⁻¹"}, {"measurement": "Kd", "setting": "[4]", "result": 4.86, "unit": "nM"}, {"measurement": "koff", "setting": "[4]", "result": 0.000237, "unit": "s⁻¹"}, {"measurement": "kon", "setting": "[4]", "result": 48800, "unit": "M⁻¹ s⁻¹"}]}
{"substance": "Z13e1 Fab", "values": [{"measurement": "Kd", "setting": "[1]", "result": 97.7, "unit": "nM"}, {"measurement": "koff", "setting": "[1]", "result": 0.00548, "unit": "s⁻¹"}, {"measurement": "kon", "setting": "[1]", "result": 56000, "unit": "M⁻¹ s⁻¹"}, {"measurement": "Kd", "setting": "[2]", "result": 34, "unit": "nM"}, {"measurement": "koff", "setting": "[2]", "result": 0.00289, "unit": "s⁻¹"}, {"measurement": "kon", "setting": "[2]", "result": 85000, "unit": "M⁻¹ s⁻¹"}]}
